Laboratory results from the supplement of paper PMC7125110.
± gives the standard error. Fewer inactive variants are shown than the library holds.

B1: glmS ribozyme (parent)
chain: AUAAAAGCGCCAGAACUACAGAAAUGUAGUUGACGAGGAGGAGGUUUAUCGAAUUUUCGGCGGAUGCCUCCAAA

Key:
Conditions in all cases: with glucosamine-6-phosphate
[1] = variants of: B1; assay: self-cleavage kobs at 40 uM GlcN6P; higher = faster cleavage; RNA array
In short: (§1)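 Tiles bearing barcoded ribozyme variants, transcribed in situ by E. coli RNA polymerase on sequenced MiSeq chips, were imaged over ~14 h at 37 °C using a hybridised Cy3 probe. Glucosamine-6-phosphate was supplied at 40 μM to 10 mM in HEPES/KCl/Mg(OAc)2 buffer. kobs came from one- or two-exponential decay fits to normalised per-tile medians, and weighted Michaelis–Menten fits then provided kcat and KM.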

[2] = variants of: B1; assay: self-cleavage kobs at 2500 uM GlcN6P; higher = faster cleavage; RNA array
In short: as §1

[3] = variants of: B1; assay: self-cleavage kobs at 10000 uM GlcN6P; higher = faster cleavage; RNA array
In short: as §1

[4] = variants of: B1; assay: self-cleavage kobs at 160 uM GlcN6P; higher = faster cleavage; RNA array
In short: as §1

[5] = variants of: B1; assay: self-cleavage kobs at 640 uM GlcN6P; higher = faster cleavage; RNA array
In short: as §1

Row | Variant | self-cleavage kobs at 40 uM GlcN6P [1] [s⁻¹] | self-cleavage kobs at 2500 uM GlcN6P [2] [s⁻¹] | self-cleavage kobs at 10000 uM GlcN6P [3] [s⁻¹] | self-cleavage kobs at 160 uM GlcN6P [4] [s⁻¹] | self-cleavage kobs at 640 uM GlcN6P [5] [s⁻¹]
1 | A39U U69C | 0.000261 ± 7.1e-05 | 0.0075 ± 0.0032 | 0.0107 ± 0.0039 | – | –
2 | G37C G41U U46C | < 1e-05 | – | < 1e-05 | – | –
3 | G35A A48C U55G | < 1e-05 | – | – | – | –
4 | G40A U47C G62A A64C C70U | < 1e-05 | < 1e-05 | < 1e-05 | – | –
5 | G35U U47A C50G C70U | 0.000411 ± 0.00012 | – | 0.000429 ± 0.00017 | – | –
6 | G35A G44U U65A C70G | < 1e-05 | < 1e-05 | – | < 1e-05 | –
7 | G38U G41C | < 1e-05 | < 1e-05 | < 1e-05 | < 1e-05 | < 1e-05
8 | G38A A42U G44U A48G | < 1e-05 | – | – | – | –
9 | G35C C50A | < 1e-05 | < 1e-05 | < 1e-05 | < 1e-05 | < 1e-05
10 | A39C G59C | < 1e-05 | < 1e-05 | < 1e-05 | < 1e-05 | < 1e-05
11 | G38A G43A | < 1e-05 | – | < 1e-05 | – | < 1e-05
12 | G38A G43U | < 1e-05 | – | < 1e-05 | < 1e-05 | < 1e-05
13 | G35C G40U A64U | < 1e-05 | < 1e-05 | – | < 1e-05 | –
14 | G35C U56G C58A U69A | < 1e-05 | < 1e-05 | – | < 1e-05 | –
15 | G37C A42U C70A | < 1e-05 | – | – | – | –
16 | A36C G37A C58G | < 1e-05 | < 1e-05 | < 1e-05 | – | –
17 | G38A U45C | < 1e-05 | < 1e-05 | < 1e-05 | < 1e-05 | < 1e-05
18 | G38C U55A G63U | < 1e-05 | < 1e-05 | – | – | < 1e-05
19 | G35C C67A | < 1e-05 | – | < 1e-05 | < 1e-05 | < 1e-05
20 | G35A C70U | < 1e-05 | < 1e-05 | < 1e-05 | < 1e-05 | < 1e-05
21 | A36U C70A | 3.96e-05 ± 1e-05 | – | 2.74e-05 ± 7.6e-06 | 4.33e-05 ± 1.3e-05 | 0.000143 ± 3.1e-05
22 | G35A U47A G51U | < 1e-05 | – | – | – | –
23 | C34U U57C C58U | < 1e-05 | < 1e-05 | < 1e-05 | – | –
24 | G37A U45C C58U C61G | < 1e-05 | – | – | – | –

Row | Variant | self-cleavage kobs at 40 uM GlcN6P [1] [s⁻¹] | self-cleavage kobs at 2500 uM GlcN6P [2] [s⁻¹] | self-cleavage kobs at 10000 uM GlcN6P [3] [s⁻¹] | self-cleavage kobs at 160 uM GlcN6P [4] [s⁻¹] | self-cleavage kobs at 640 uM GlcN6P [5] [s⁻¹]
25 | G35U G38A | < 1e-05 | – | < 1e-05 | < 1e-05 | –
26 | G38U G66A U69G | 4.77e-05 ± 2e-05 | – | 4.02e-05 ± 1.6e-05 | – | –
27 | G35U C50U C67G | 0.000272 ± 0.0001 | – | – | – | –
28 | G37C G44U | < 1e-05 | – | – | – | < 1e-05
29 | G37C G44A | < 1e-05 | – | < 1e-05 | < 1e-05 | < 1e-05
30 | A39U U45A | 0.000759 ± 9.8e-05 | 0.0135 ± 0.0033 | 0.0807 ± 0.02 | 0.00209 ± 0.00053 | 0.0067 ± 0.0015
31 | A36G A42U | < 1e-05 | – | < 1e-05 | < 1e-05 | < 1e-05
32 | G37C U54A U55C G63C U69G | < 1e-05 | – | < 1e-05 | – | –
33 | G35U G43U U54A | < 1e-05 | – | < 1e-05 | – | –
34 | G38U C61A C67U | 8.86e-05 ± 3e-05 | – | 8.02e-05 ± 2.6e-05 | – | –
35 | A39G C50U C58U | < 1e-05 | – | – | – | –
36 | A36U U45C C50U | < 1e-05 | – | – | – | –
37 | G35C U46C | < 1e-05 | < 1e-05 | – | – | < 1e-05
38 | A36G G63A C67G | < 1e-05 | – | < 1e-05 | – | –
39 | G38A U57G | < 1e-05 | < 1e-05 | < 1e-05 | – | < 1e-05
40 | A39U A42C U54C U65C | < 1e-05 | < 1e-05 | – | – | < 1e-05
41 | G38U A42C A53U | < 1e-05 | – | – | – | –
42 | G37C C50U G66U | < 1e-05 | – | < 1e-05 | – | –
43 | A36C G41U U45G C67G | < 1e-05 | – | < 1e-05 | – | –
44 | G37A G51C | < 1e-05 | < 1e-05 | < 1e-05 | < 1e-05 | < 1e-05
45 | A36U A48U | < 1e-05 | < 1e-05 | < 1e-05 | < 1e-05 | –
46 | A39G G63U G66A | < 1e-05 | < 1e-05 | < 1e-05 | – | < 1e-05
47 | A36C G44A | < 1e-05 | < 1e-05 | < 1e-05 | < 1e-05 | < 1e-05
48 | A39C C68G | < 1e-05 | – | < 1e-05 | – | –

Row | Variant | self-cleavage kobs at 40 uM GlcN6P [1] [s⁻¹] | self-cleavage kobs at 2500 uM GlcN6P [2] [s⁻¹] | self-cleavage kobs at 10000 uM GlcN6P [3] [s⁻¹] | self-cleavage kobs at 160 uM GlcN6P [4] [s⁻¹] | self-cleavage kobs at 640 uM GlcN6P [5] [s⁻¹]
49 | G37A C50U | < 1e-05 | < 1e-05 | – | < 1e-05 | –
50 | A36U A39U C50U C61G U65A | < 1e-05 | – | < 1e-05 | – | –
51 | G35U A48G | < 1e-05 | – | < 1e-05 | < 1e-05 | < 1e-05
52 | G35A U45C C71U | < 1e-05 | < 1e-05 | < 1e-05 | – | –
53 | G37U G40U U45C | < 1e-05 | – | < 1e-05 | – | –
54 | G38U C50U G51C U69A | 8.35e-05 ± 3.9e-05 | – | – | – | –
55 | A39U C68U C71U | 0.000103 ± 3e-05 | – | – | – | –
56 | A39G U56G | 0.00055 ± 0.00012 | – | 0.0224 ± 0.0047 | – | –
57 | G35C C61U | < 1e-05 | < 1e-05 | < 1e-05 | < 1e-05 | < 1e-05
58 | G38C U56C | < 1e-05 | < 1e-05 | < 1e-05 | < 1e-05 | –
59 | A36G G41C G43C A48G | < 1e-05 | < 1e-05 | < 1e-05 | – | –
60 | G35U G62A | < 1e-05 | < 1e-05 | < 1e-05 | < 1e-05 | < 1e-05
61 | A39U U65C | 8.42e-05 ± 1.7e-05 | 0.00149 ± 0.00024 | – | 0.000124 ± 2.7e-05 | 0.00114 ± 0.00015
62 | A36G A39U G43C C61G | < 1e-05 | – | – | – | –
63 | A39C A42G A64C C67G | < 1e-05 | – | < 1e-05 | – | –
64 | G37U G59U | < 1e-05 | – | – | – | < 1e-05
65 | A36C G41U G44C U55G U56C C61G | < 1e-05 | – | – | – | –
66 | G35A G51A | < 1e-05 | – | < 1e-05 | – | –
67 | A39U U54G C58U | < 1e-05 | – | – | – | –
68 | A36U U47G C70G | 6.62e-05 ± 2.4e-05 | – | 4.91e-05 ± 1.4e-05 | – | –
69 | A36C A42U | < 1e-05 | – | – | – | –
70 | A39G U45G A48G | < 1e-05 | – | 6.43e-05 ± 1.9e-05 | – | –
71 | G38U A53C | < 1e-05 | < 1e-05 | – | < 1e-05 | < 1e-05
72 | G37U A39G | < 1e-05 | < 1e-05 | – | – | –

Row | Variant | self-cleavage kobs at 40 uM GlcN6P [1] [s⁻¹] | self-cleavage kobs at 2500 uM GlcN6P [2] [s⁻¹] | self-cleavage kobs at 10000 uM GlcN6P [3] [s⁻¹] | self-cleavage kobs at 160 uM GlcN6P [4] [s⁻¹] | self-cleavage kobs at 640 uM GlcN6P [5] [s⁻¹]
73 | G35U U46A C58U | < 1e-05 | < 1e-05 | < 1e-05 | < 1e-05 | –
74 | G35A U45C | < 1e-05 | < 1e-05 | < 1e-05 | – | < 1e-05
75 | G35U G59C | < 1e-05 | < 1e-05 | < 1e-05 | < 1e-05 | < 1e-05
76 | G37A G51A U55G | < 1e-05 | – | < 1e-05 | – | –
77 | G38U U54G | < 1e-05 | – | – | – | –
78 | G37U A39U U45G G51A G59A | < 1e-05 | – | – | – | –
79 | G35U C61A | < 1e-05 | < 1e-05 | < 1e-05 | – | < 1e-05
80 | G35C U57A | < 1e-05 | < 1e-05 | – | < 1e-05 | < 1e-05
81 | G35U C61U U65G | < 1e-05 | – | – | – | –
82 | G38U A48C C71G | < 1e-05 | – | < 1e-05 | – | –
83 | G37A G40C A48U G63A | < 1e-05 | – | – | – | –
84 | A39U A42G C67U | 0.000231 ± 6.2e-05 | 0.00297 ± 0.00075 | 0.0241 ± 0.0085 | 0.000536 ± 0.00015 | –
85 | G40A G44A C70U | < 1e-05 | – | < 1e-05 | – | –
86 | G35C U45C C67G C68A | 0.00152 ± 0.00042 | – | 0.000566 ± 0.00018 | – | –
87 | G38U U45G | < 1e-05 | – | – | – | < 1e-05
88 | G38U G59C | < 1e-05 | < 1e-05 | – | – | < 1e-05
89 | A36G U49G | < 1e-05 | – | – | – | < 1e-05
90 | A36C U69G | 4.49e-05 ± 1.6e-05 | 0.0001 ± 2e-05 | 3.45e-05 ± 1e-05 | 0.000114 ± 3.7e-05 | 0.000391 ± 9.8e-05
91 | G37C A48U | < 1e-05 | – | < 1e-05 | – | –
92 | A36G U56A | < 1e-05 | – | – | – | < 1e-05
93 | G37U G41C C67A | < 1e-05 | – | – | – | –
94 | G38U G43C U47C A53U U55A G59C | < 1e-05 | – | – | – | –
95 | G38A U49C | < 1e-05 | < 1e-05 | – | – | –
96 | G38A A52U C71U | < 1e-05 | – | < 1e-05 | – | –
